Test results as given in the array DNA melting data of Ke et al..

Assay: melting temperature; melt of duplexes
Details: sodium 0.0675 M; strand 1 µM

| Substance | Tm [°C] |
| --- | --- |
| CGACGTGCTATATGTGCTG+CAGCACATGTGGCACGTCG ((((((((.(.((((((((+)))))))).).)))))))) | 53.6 |
| CGACGTGCTATATGTGCTG+CAGCACATGTTGCACGTCG ((((((((.(.((((((((+)))))))).).)))))))) | 52.6 |
| CGACGTGCTATATGTGCTG+CAGCACATTATGCACGTCG ((((((((...((((((((+))))))))...)))))))) | 51.6 |
| CGACGTGCTATATGTGCTG+CAGCACATTCCGCACGTCG ((((((((...((((((((+))))))))...)))))))) | 47.8 |
| CGACGTGCTATATGTGCTG+CAGCACATTCTGCACGTCG ((((((((...((((((((+))))))))...)))))))) | 49 |
| CGACGTGCTATATGTGCTG+CAGCACATTGAGCACGTCG (((((((((..((((((((+))))))))..))))))))) | 52.9 |
| CGACGTGCTATATGTGCTG+CAGCACATTGCGCACGTCG ((((((((...((((((((+))))))))...)))))))) | 47.4 |
| CGACGTGCTATATGTGCTG+CAGCACATTGGGCACGTCG ((((((((...((((((((+))))))))...)))))))) | 50.5 |
| CGACGTGCTATATGTGCTG+CAGCACATTGTGCACGTCG ((((((((...((((((((+))))))))...)))))))) | 47.2 |
| CGACGTGCTATATGTGCTG+CAGCACATTTCGCACGTCG ((((((((.(.((((((((+)))))))).).)))))))) | 49 |
| CGACGTGCTATATGTGCTG+CAGCACATTTTGCACGTCG ((((((((.(.((((((((+)))))))).).)))))))) | 50.9 |
| CGACGTGCTCAATGTGCTG+CAGCACATACTGCACGTCG ((((((((...((((((((+))))))))...)))))))) | 48.7 |
| CGACGTGCTCAATGTGCTG+CAGCACATATAGCACGTCG (((((((((..((((((((+))))))))..))))))))) | 51.5 |
| CGACGTGCTCAATGTGCTG+CAGCACATATGGCACGTCG ((((((((...((((((((+))))))))...)))))))) | 50.5 |
| CGACGTGCTCAATGTGCTG+CAGCACATCAAGCACGTCG (((((((((..((((((((+))))))))..))))))))) | 51.6 |
| CGACGTGCTCAATGTGCTG+CAGCACATCACGCACGTCG ((((((((...((((((((+))))))))...)))))))) | 48.1 |
| CGACGTGCTCAATGTGCTG+CAGCACATCCCGCACGTCG ((((((((...((((((((+))))))))...)))))))) | 48 |
| CGACGTGCTCAATGTGCTG+CAGCACATCTGGCACGTCG ((((((((...((((((((+))))))))...)))))))) | 50.3 |
| CGACGTGCTCAATGTGCTG+CAGCACATGAGGCACGTCG ((((((((...((((((((+))))))))...)))))))) | 53 |
| CGACGTGCTCAATGTGCTG+CAGCACATGCGGCACGTCG ((((((((...((((((((+))))))))...)))))))) | 49.4 |
| CGACGTGCTCAATGTGCTG+CAGCACATGCTGCACGTCG ((((((((...((((((((+))))))))...)))))))) | 47.9 |
| CGACGTGCTCAATGTGCTG+CAGCACATGGAGCACGTCG ((((((((((.((((((((+)))))))).)))))))))) | 59.5 |
| CGACGTGCTCAATGTGCTG+CAGCACATGTAGCACGTCG (((((((((..((((((((+))))))))..))))))))) | 52.8 |
| CGACGTGCTCAATGTGCTG+CAGCACATGTTGCACGTCG ((((((((...((((((((+))))))))...)))))))) | 50.1 |

| Substance | Tm [°C] |
| --- | --- |
| CGACGTGCTCAATGTGCTG+CAGCACATTAAGCACGTCG (((((((((.(((((((((+))))))))).))))))))) | 54.4 |
| CGACGTGCTCAATGTGCTG+CAGCACATTCTGCACGTCG ((((((((..(((((((((+)))))))))..)))))))) | 50.8 |
| CGACGTGCTCAATGTGCTG+CAGCACATTGAGCACGTCG (((((((((((((((((((+))))))))))))))))))) | 64.2 |
| CGACGTGCTCAATGTGCTG+CAGCACATTGCGCACGTCG ((((((((.((((((((((+)))))))))).)))))))) | 56.6 |
| CGACGTGCTCAATGTGCTG+CAGCACATTGGGCACGTCG ((((((((.((((((((((+)))))))))).)))))))) | 60.1 |
| CGACGTGCTCCATGTGCTG+CAGCACATAAGGCACGTCG ((((((((...((((((((+))))))))...)))))))) | 49 |
| CGACGTGCTCCATGTGCTG+CAGCACATAATGCACGTCG ((((((((...((((((((+))))))))...)))))))) | 48.4 |
| CGACGTGCTCCATGTGCTG+CAGCACATACAGCACGTCG (((((((((..((((((((+))))))))..))))))))) | 49.6 |
| CGACGTGCTCCATGTGCTG+CAGCACATACCGCACGTCG ((((((((...((((((((+))))))))...)))))))) | 46.3 |
| CGACGTGCTCCATGTGCTG+CAGCACATACGGCACGTCG ((((((((...((((((((+))))))))...)))))))) | 47 |
| CGACGTGCTCCATGTGCTG+CAGCACATACTGCACGTCG ((((((((...((((((((+))))))))...)))))))) | 47.4 |
| CGACGTGCTCCATGTGCTG+CAGCACATAGAGCACGTCG ((((((((((.((((((((+)))))))).)))))))))) | 56.2 |
| CGACGTGCTCCATGTGCTG+CAGCACATATAGCACGTCG (((((((((..((((((((+))))))))..))))))))) | 50.4 |
| CGACGTGCTCCATGTGCTG+CAGCACATATCGCACGTCG ((((((((...((((((((+))))))))...)))))))) | 46.4 |
| CGACGTGCTCCATGTGCTG+CAGCACATATGGCACGTCG ((((((((...((((((((+))))))))...)))))))) | 49 |
| CGACGTGCTCCATGTGCTG+CAGCACATCATGCACGTCG ((((((((...((((((((+))))))))...)))))))) | 47.7 |
| CGACGTGCTCCATGTGCTG+CAGCACATCCGGCACGTCG ((((((((...((((((((+))))))))...)))))))) | 47.7 |
| CGACGTGCTCCATGTGCTG+CAGCACATCGAGCACGTCG ((((((((((.((((((((+)))))))).)))))))))) | 55.2 |
| CGACGTGCTCCATGTGCTG+CAGCACATCTCGCACGTCG ((((((((...((((((((+))))))))...)))))))) | 46.2 |
| CGACGTGCTCCATGTGCTG+CAGCACATCTTGCACGTCG ((((((((...((((((((+))))))))...)))))))) | 47.2 |
| CGACGTGCTCCATGTGCTG+CAGCACATGAAGCACGTCG (((((((((.(((((((((+))))))))).))))))))) | 57.4 |
| CGACGTGCTCCATGTGCTG+CAGCACATGCTGCACGTCG ((((((((..(((((((((+)))))))))..)))))))) | 50.8 |
| CGACGTGCTCCATGTGCTG+CAGCACATGGAGCACGTCG (((((((((((((((((((+))))))))))))))))))) | 66.1 |
| CGACGTGCTCCATGTGCTG+CAGCACATGTAGCACGTCG (((((((((.(((((((((+))))))))).))))))))) | 56.3 |

| Substance | Tm [°C] |
| --- | --- |
| CGACGTGCTCCATGTGCTG+CAGCACATGTCGCACGTCG ((((((((..(((((((((+)))))))))..)))))))) | 52.1 |
| CGACGTGCTCCATGTGCTG+CAGCACATTAAGCACGTCG (((((((((..((((((((+))))))))..))))))))) | 49.4 |
| CGACGTGCTCCATGTGCTG+CAGCACATTAGGCACGTCG ((((((((...((((((((+))))))))...)))))))) | 48.4 |
| CGACGTGCTCCATGTGCTG+CAGCACATTCAGCACGTCG (((((((((..((((((((+))))))))..))))))))) | 48.7 |
| CGACGTGCTCCATGTGCTG+CAGCACATTCGGCACGTCG ((((((((...((((((((+))))))))...)))))))) | 47.6 |
| CGACGTGCTCCATGTGCTG+CAGCACATTCTGCACGTCG ((((((((...((((((((+))))))))...)))))))) | 47.2 |
| CGACGTGCTCCATGTGCTG+CAGCACATTTAGCACGTCG (((((((((..((((((((+))))))))..))))))))) | 49.4 |
| CGACGTGCTCGATGTGCTG+CAGCACATACTGCACGTCG ((((((((...((((((((+))))))))...)))))))) | 49 |
| CGACGTGCTCGATGTGCTG+CAGCACATAGAGCACGTCG ((((((((((.((((((((+)))))))).)))))))))) | 59.5 |
| CGACGTGCTCGATGTGCTG+CAGCACATAGCGCACGTCG ((((((((.(.((((((((+)))))))).).)))))))) | 51.6 |
| CGACGTGCTCGATGTGCTG+CAGCACATAGTGCACGTCG ((((((((.(.((((((((+)))))))).).)))))))) | 49.8 |
| CGACGTGCTCGATGTGCTG+CAGCACATCAAGCACGTCG (((((((((.(((((((((+))))))))).))))))))) | 57.2 |
| CGACGTGCTCGATGTGCTG+CAGCACATCCCGCACGTCG ((((((((..(((((((((+)))))))))..)))))))) | 52.1 |
| CGACGTGCTCGATGTGCTG+CAGCACATCCGGCACGTCG ((((((((..(((((((((+)))))))))..)))))))) | 53.7 |
| CGACGTGCTCGATGTGCTG+CAGCACATCCTGCACGTCG ((((((((..(((((((((+)))))))))..)))))))) | 53 |
| CGACGTGCTCGATGTGCTG+CAGCACATCGAGCACGTCG (((((((((((((((((((+))))))))))))))))))) | 66.6 |
| CGACGTGCTCGATGTGCTG+CAGCACATCGGGCACGTCG ((((((((.((((((((((+)))))))))).)))))))) | 62.2 |
| CGACGTGCTCGATGTGCTG+CAGCACATCGTGCACGTCG ((((((((.((((((((((+)))))))))).)))))))) | 59 |
| CGACGTGCTCGATGTGCTG+CAGCACATCTCGCACGTCG ((((((((..(((((((((+)))))))))..)))))))) | 53.3 |
| CGACGTGCTCGATGTGCTG+CAGCACATGAAGCACGTCG (((((((((..((((((((+))))))))..))))))))) | 52.8 |
| CGACGTGCTCGATGTGCTG+CAGCACATGACGCACGTCG ((((((((...((((((((+))))))))...)))))))) | 47.4 |
| CGACGTGCTCGATGTGCTG+CAGCACATGATGCACGTCG ((((((((...((((((((+))))))))...)))))))) | 51.9 |
| CGACGTGCTCGATGTGCTG+CAGCACATGCTGCACGTCG ((((((((...((((((((+))))))))...)))))))) | 47 |
| CGACGTGCTCGATGTGCTG+CAGCACATGGGGCACGTCG ((((((((.(.((((((((+)))))))).).)))))))) | 54.5 |
